Experimental data: US20080233097A1, “Phosphorylation Site Of Mitogen-Activated Protein Kinases, Modified Proteins And Applications” (UNIVERSIDAD AUTONOMA DE MADRID, priority 2005, published 2008)
“And” between values parts separate entries of the source, which are not always exact repeats. Identical values can stand only once.

Legend:
[1] = target: T1, p38 (Mus musculus, UniProt P47811); test: effect of heparin on catalytic activity of p38; assay type: biochemical
T1 construct: with whole p38α in the same conditions as described in section A; made in house; host or cells: E. coli
From the text: Subsequently, the inventors decided to study the possible interactions between GRK2 and p38. The first experimental approach was the phosphorylation assays of both proteins. […] These experiments were completed with negative controls of GST phosphorylation by GRK2 and by inspecting the binding area between the GST portion and the ORF of p38.

[2] = target: T2, p38 (GST-p38) (Mus musculus, UniProt P47811); test: p38 phosphorylation by GRK2 in vitro (kinetic characterization); assay type: biochemical
T2 construct: with whole p38α in the same conditions as described in section A; made in house; host or cells: E. coli (GST-p38); Sf9 cells with baculovirus (GRK2)
Protocol: Normally, the phosphorylation reactions are left to take place for 30 minutes at 30° C. In the case of two-dimensional electrophoresis or of the samples intended for proteomic sequencing, the reaction extends to 1 or 2 hours.
The Michaelis-Menten behaviour of the kinases was assumed for calculating the kinetic constants of the enzymatic reactions. The graphs were made with the “Kaleidagraph” program, provided with an algorithm capable of deducing the kinetic parameters: Michaelis-Menten constant (Km) and maximum speed (Smax=So (nmol of PO4^3-incorporated. mg of enzyme^−1minute^−1)

[3] = system: Flag-p38; test: GRK2 overexpression: p38 activation by MKK6CAM in HEK 293 cells; assay type: cell-based, human; conditions: increasing doses of pCDNA3-GRK2 (0 to 1 μg)
Protocol: FIG. 3A: HEK 293 cells, normally seeded in multiwell plates with 6 or 12 wells (M6 or M12), were transiently transfected with pCDNA3-Flag-p38α, pCDNA3-MKK6CAM, and with increasing amounts of the pCDNA3-GRK2 vector. In this experiment, M6 plates were used and the DNA amounts introduced were: 100 ng of Flag-p38, 100 ng of MKK6CAM, and 0 to 1 μg of GRK2. In all points, the total amount of DNA was completed with pCEFL-EGFP and with empty pCDNA3 instead of pCDNA3-MKK6CAM, in the case of the control (CTRL). After 48 hours, the cells were harvested by lysing them in M2 buffer. […] The p38 activation state was evaluated with anti-phospho-p38, of Cell Signaling, and after giving off the antibodies of the first immunodetection, it was detected with total anti-p38, of the same company. […] The Flag-p38 activation state was determined in the same way as in A. Furthermore, the correct MKK6CAM expression was assured with the anti-MKK6/SKK3 antibody of Upstate Biotechnology. […]
The HE 293 cells, generally subjected to starvation (medium without serum) of a variable duration: 2 hours in the case of p38 and all night in the case of ERK, were stimulated and, after processing the lysate cells, the immunodetection of the phosphoproteins was carried out with the phospho-specific antibodies of the activation segments of both proteins. […] The quantification of the bands was carried out in a laser densitometer. […]

[4] = system: β-tubulins; conditions: depending on the subtypes; cited from earlier work
[5] = system: 3T3-L1 cells; test: adipocyte differentiation of 3T3-L1 (Oil Red staining, adipocyte count); assay type: cell-based; conditions: 3T3L1 lines stably transfected, day 15
From the text: 3T3L1 lines stably transfected with pCDNA3-GRK2 and pCDNA3-GRK2K220R were made. GRK2 (anti-GRK2) expression controls obtained in cell lines, compared to 3T3L1 levels, are included. The cells were subjected to a standard differentiation treatment and on day 15 of the latter, the cells were fixed with formalin and stained with Oil Red, a lipophilic coloring which binds to the fats accumulated by the adipocytes. The cells with adipocytic phenotype (in red) were counted under microscope in a total of 25 fields. Representative photographs of two independent experiments are shown in duplicate. A photo of the 3T3L1 cells, free of stimulation with insulin during the differentiation process (control), is also included. The graph reflects the adipocyte count (±SEM) in these experiments.
The cell culture was carried out with 10% DMEM medium of NCS serum. However, the entire differentiation process which is described below must be performed in depleted AXC serum (ion exchange resin) by means of successive adsorptions of fetal calf serum on an anion exchange resin and on active carbon. AXC serum was provided by the kitchen service of the Instituto of Investigaciones Biomédicas (Biomedical Research Institute). The cells are grown until their confluence and are plated (5×10^5 in P-100) in DMEM-10% AXC medium, supplemented with 4 μM of biotin (Sigma). The following day, the medium is replaced with fresh medium. The cells are grown another three days, until confluence is reached again, that day is called day “0”. On day 0 of differentiation, the cells are cultured in a medium containing: 0.5 μM dexamethasone (Sigma), 0.5 mM 3-isobutyl-1-methylxanthine (IMBX, of Sigma) and 1 μM insulin (Sigma) and in which they will remain for another three days. […] From day 6 to day 15, the adipogenesis was analyzed by staining with Oil Red, a red coloring of lipophilic constitution which binds to the drops of fat accumulated by the adipocytes in their cytoplasm. […] The cells are counted in a total of 25 fields per each experimental plate.

[6] = system: sinucleins; conditions: depending on the subtypes; cited from earlier work
[7] = target: T3, Flag-p38α (Mus musculus, UniProt P47811); test: […] peptide phosphorylation by immunoprecipitated Flag-p38; assay type: biochemical; conditions: HEK 293 cells transfected with Flag-p38α, MKK6CAM and 1 or 2 μg pCDNA3-GRK2
T3 construct: expressed in transfected cells; host or cells: HEK 293 cells, co-transfected with pCDNA3-MKK6CAM and with or without pCDNA3-GRK2

[8] = system: phosducin and the protein similar to phosducin (PhD and PhLP); conditions: cited from earlier work
[9] = target: GST-Mxi2Δ17, Q16539
[10] = target: GST-Mxi2, Q16539
[11] = target: T4, GST-p38 (wild type p38α fused to GST, from pGEX2T-p38α)
T4 chain: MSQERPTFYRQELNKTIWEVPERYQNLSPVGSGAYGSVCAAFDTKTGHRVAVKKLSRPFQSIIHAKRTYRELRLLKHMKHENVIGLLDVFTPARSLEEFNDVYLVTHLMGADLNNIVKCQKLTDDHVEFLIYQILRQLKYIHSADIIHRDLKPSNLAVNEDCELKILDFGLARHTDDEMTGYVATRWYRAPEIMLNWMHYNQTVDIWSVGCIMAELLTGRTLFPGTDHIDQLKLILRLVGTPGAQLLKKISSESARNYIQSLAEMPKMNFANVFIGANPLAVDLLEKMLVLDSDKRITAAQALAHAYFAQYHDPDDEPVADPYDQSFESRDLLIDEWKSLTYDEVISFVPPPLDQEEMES

[12] = target: GST-p38T123A
[13] = target: GST-p38T123D
[14] = target: T5, GST-280-360p38 (last 80 amino acids of p38α fused to GST, from pDEST15)
T5 chain: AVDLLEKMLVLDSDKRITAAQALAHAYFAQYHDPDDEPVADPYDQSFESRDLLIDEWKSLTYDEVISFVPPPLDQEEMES

T2 sequence (P47811 whole entry): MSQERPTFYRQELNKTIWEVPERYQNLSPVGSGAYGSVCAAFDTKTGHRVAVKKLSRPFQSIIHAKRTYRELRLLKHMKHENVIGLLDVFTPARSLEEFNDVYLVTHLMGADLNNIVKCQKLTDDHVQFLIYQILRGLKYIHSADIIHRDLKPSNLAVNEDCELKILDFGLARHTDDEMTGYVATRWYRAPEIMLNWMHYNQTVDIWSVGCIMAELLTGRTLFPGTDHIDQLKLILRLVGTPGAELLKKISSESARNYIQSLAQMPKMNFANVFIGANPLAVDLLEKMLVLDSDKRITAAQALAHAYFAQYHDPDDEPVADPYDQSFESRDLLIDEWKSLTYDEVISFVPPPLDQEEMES
T3 sequence (P47811 whole entry): as above
T1 sequence (P47811 whole entry): as above

Molecule: heparin
- effect on catalytic activity of p38 [1]: does not affect the catalytic activity of p38

Molecule: GRK2: G protein-coupled receptor kinase 2; recombinant, purified by the Baculovirus system; phosphorylates Thr123 of p38
- maximum speed (Smax) ([2]; GRK2 25 nM, p38 12.5 to 400 nM, 15 minutes): 0.9 nmol of PO4^3-incorporated per mg GRK2^−1 minute^−1
- Km ([2]; GRK2 25 nM, p38 12.5 to 400 nM, 15 minutes, 30° C., read-out: Michaelis-Menten constant (Km)): 0.0796 µM and 0.08 µM
- stoichiometry of phosphorylation ([2]; at least three quantifications by Cerenkov): 0.4-0.8 mol Pi/mol p38
- average time for reaching 50% of the maximum phosphorylation ([2]; time course 0 to 90 minutes): 15 min
- p38 activation dependent on MKK6CAM [3]: decreased more as more amounts of GRK2 were expressed
- Km [4]: 1 to 2 µM
- acquisition of the adipocytic morphology mediated by insulin [5]: inhibits the acquisition of the adipocytic morphology mediated by insulin
- Km [6]: 1 to 2 µM
- catalytic activity of immunoprecipitated p38 on APR peptide [7]: dimmed
- Km [8]: 0.04 to 0.1 µM

B1: Recombinant GRK2 purified by the Baculovirus system (from infected Sf9 cells) (protein)
chain: MADLEAVLADVSYLMAMEKSKATPAARASKKILLPEPSIRSVMQKYLEDRGEVTFEKIFSQKLGYLLFRDFCLKHLEEAKPLVEFYEEIKKYEKLETEEERLVCSREIFDTYIMKELLACSHPFSKSAIEHVQGHLVKKQVPPDLFQPYIEEICQNLRGDVFQKFIESDKFTRFCQWKNVELNIHLTMNDFSVHRIIGRGGFGEVYGCRKADTGKMYAMKCLDKKRIKMKQGETLALNERIMLSLVSTGDCPFIVCMSYAFHTPDKLSFILDLMNGGDLHYHLSQHGVFSEADMRFYAAEIILGLEHMHNRFVVYRDLKPANILLDEHGHVRISDLGLACDFSKKKPHASVGTHGYMAPEVLQKGVAYDSSADWFSLGCMLFKLLRGHSPFRQHKTKDKHEIDRMTLTMAVELPDSFSPELRSLLEGLLQRDVNRRLGCLGRGAQEVKESPFFRSLDWQMVFLQKYPPPLIPPRGEVNAADAFDIGSFDEEDTKGIKLLDSDQELYRNFPLTISERWQQEVAETVFDTINAETDRLEARKKTKNKQLGHEEDYALGKDCIMHGYMSKMGNPFLTQWQRRYFYLFPNRLEWRGEGEAPQSLLTMEEIQSVEETQIKERKCLLLKIRGGKQFVLQCDSDPELVQWKKELRDAYREAQQLVQRVPKMKNKPRSPVVELSKVPLIQRGSANGL
- phosphorylation by GRK2 (32P incorporation) [9]: With comparable amounts of p38α, Mxi2 and MxiΔ17, the last two were not phosphorylated by GRK2
- phosphorylation by GRK2 (32P incorporation) [10]: With comparable amounts of p38α, Mxi2 and MxiΔ17, the last two were not phosphorylated by GRK2
- Km of p38 phosphorylation by GRK2 [11]: the value of the Km=80 nM
- Michaelis-Menten constant (Km) of GST-p38 phosphorylation by GRK2 [11]: Km=79.56 nM
- phosphorylation by GRK2 (32P incorporation) [12]: none of the two mutant is a GRK2 substrate
- phosphorylation by GRK2 (32P incorporation) [13]: none of the two mutant is a GRK2 substrate
- phosphorylation by GRK2 (32P incorporation) [14]: after purifying the fusion protein and testing it against GRK2, no trace whatsoever of phosphorylation was obtained
